T1: RANK on RAW264.7 cells (mouse (RAW264.7 cells), UniProt O35305 31-625)
T1 sequence (looked up): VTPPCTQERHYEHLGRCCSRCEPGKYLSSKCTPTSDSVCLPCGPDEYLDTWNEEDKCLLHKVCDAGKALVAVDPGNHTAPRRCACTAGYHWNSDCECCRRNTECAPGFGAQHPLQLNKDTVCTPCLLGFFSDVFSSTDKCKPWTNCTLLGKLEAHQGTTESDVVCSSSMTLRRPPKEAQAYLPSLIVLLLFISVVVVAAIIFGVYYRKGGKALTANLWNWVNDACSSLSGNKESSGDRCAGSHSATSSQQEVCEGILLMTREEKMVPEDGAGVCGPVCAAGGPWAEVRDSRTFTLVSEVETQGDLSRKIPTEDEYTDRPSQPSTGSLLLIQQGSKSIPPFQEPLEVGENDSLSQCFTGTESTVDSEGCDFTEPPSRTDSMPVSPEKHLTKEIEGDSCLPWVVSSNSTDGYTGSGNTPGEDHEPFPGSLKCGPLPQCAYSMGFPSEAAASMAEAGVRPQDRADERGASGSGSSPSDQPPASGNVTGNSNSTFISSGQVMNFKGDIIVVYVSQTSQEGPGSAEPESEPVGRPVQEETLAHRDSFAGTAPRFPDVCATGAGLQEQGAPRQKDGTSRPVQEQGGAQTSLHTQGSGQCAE

B1: recombinant human RANKL (ligand)
chain: HHHHHHHHHHGSQHIRAEKAMVDGSWLDLAKRSKLEAQPFAHLTINATDIPSGSHKVSLSSWYHDRGWAKISNMTFSNGKLIVNQDGFYYLYANICFRHHETSGDLATEYLQLMVYVTKTSIKIPSSHTLMKGGSTKYWSGNSEFHFYSINVGGFFKLRSGEEISIEVSNPSLLDPDQDATYFGAFKVRDID
B2: commercial hRANKL standard (ligand, human, UniProt O14788 140-317, looked up)
chain: IRAEKAMVDGSWLDLAKRSKLEAQPFAHLTINATDIPSGSHKVSLSSWYHDRGWAKISNMTFSNGKLIVNQDGFYYLYANICFRHHETSGDLATEYLQLMVYVTKTSIKIPSSHTLMKGGSTKYWSGNSEFHFYSINVGGFFKLRSGEEISIEVSNPSLLDPDQDATYFGAFKVRDID

Assays:
recombinant human RANKL = target: B1; assay: ELISA, coated recombinant human RANKL, RANK-Fc titrated, anti-human IgG-Fc
Description: (§1) The samples are diluted to 1 μg/ml, was added 100 and incubated overnight at 4° C. RANK-Fc gradient diluted from 10 μg/ml is added, 1:20,000 dilution of secondary antibody (goat anti-human IgG-Fc) is added, the sample is incubated for 1 hour at room temperature, is colored using TMB chromogenic color system. Absorbance value to each well of the 96-well plate is measured on the multifunction microplate reader with a measurement wavelength of 450 nm, a reference wavelength of 630 nm, absorbance value to each well (OD)=OD450 nm-OD630 nm.

[1] = target: B2; assay: ELISA, coated commercial hRANKL standard, RANK-Fc titrated, anti-human IgG-Fc
Description: as §1

RANK on RAW264.7 cells = target: T1, RANK on RAW264.7 cells; assay: cell-based or functional assay

Binder	EC50 (recombinant human RANKL) [µg/mL]	EC50 [1] [ng/mL]	EC50 of inducing RAW264.7 cells to be differentiated into osteoclasts (tartrate-resistant acid phosphatase, pNPP) (RANK on RAW264.7 cells) [ng/ml]
RANK-Fc (Fc fusion, Bought from R & D Systems; also called receptor RANK-Fc; not shown: Human IgG Fc part and any linker of the bought R & D Systems RANK-Fc) IAPPCTSEKHYEHLGRCCNKCEPGKYMSSKCTTTSDSVCLPCGPDEYLDSWNEEDKCLLHKVCDTGKALVAVVAGNSTTPRRCACTAGYHWSQDCECCRRNTECAPGLGAQHPLQLNKDTVCKPCLAGYFSDAFSSTDKCRPWTNCTFLGKRVEHHGTEKSDAVCSSSLPARKPPNEPHVYLP	0.0109	5.6	
B1			113
B2			35.7
